Laboratory results taken from IntAct's records for PubMed 20094029.

B1: BRCT-containing protein 1 (Schizosaccharomyces pombe (strain ATCC 38366 / 972)), Q10337 (parent)
chain: MLAAESSNKELFIKNDGKALSFPYDWKLATHVICDDFSSPNVQEGSKRSLRLAKTNWIRDCVDKNTLLNYSFYSCNPYLLFKGICASSCQIDSYQSSLIDDALETFGGRFSKGLMKSMTHLFTYSGMGAKCKKVLDKPSLSIKLIHPQWLLDCLQFGQLIDQDPYLFPNPSYKKNDSSISKAEPTSLFRNVLHGKRIYFSNDLNLPTNFRHSLQKFSVGIGAKIAESINDCDIFIGLKRDTIEFNLASNKNTTIGTISWLLNLFVLGSWKSPLLNALHYPFPSVGFLKDQMVAVTNYTDAARIYLEKLLLACGATYTKDLKPTNTLLIAASSYGQKYGAAKVWNIPTVHHSWLYSSFKNLSSQAFTDFPVPLDDSYMDFIFPCPLNVEKGSFEDTLKSSLTKGNSEVLLDDLSDPSVSSIKGNKTNEELEKEFKSTSDNFGKHIILTSSFSNQSADKGSSLAAEDDRNDEGSTITGVNRELQDEGRLEIDAKSSKTNTPPSPLLVGTPSKESLKEASSDDELPVLATKLVDNVIKEKSPLSLTPKVVVPSHKETYTDEKKLIDELDRVNPLNSSQLLRSKRKSAATALSMLQNVIMPDVLAFEREKKRRQTHRSVSSGEVSRESSESRNTNAKASKRVYITFTGYDKKPSIDNLKKLDMSITSNPSKCTHLIAPRILRTSKFLCSIPYGPCVVTMDWINSCLKTHEIVDEEPYLLNDPEKELELGCTLESALKRARAQGPSLLEDYVVYLTSKTVAPENVPAVISIVKSNGGVCSTLNVYNKRLARHLEDGNVVLITCNEDSHIWTNFLDNASQNKTIFLQNYDWLIKTVLRQEIDVNDRIADEFARAV

Variants of: B1
Conditions: with h2a1_schpo hta1, P04909

effect of a mutation on the interaction | Variant
disrupting interaction | T643A
